From patent US7172876B2, “Method of screening therapeutic agents for nerve degeneration associated diseases” (Takeda Pharmaceutical Company Limited, priority 2002, dated 2007)
Where a chain is given by its changes, count along the chain named. Ends that are not written are not given here. * marks the point of attachment. For = O=C*

Key:
mFPRL2 = target: T1, mFPRL2 (Mus musculus, UniProt O88536); test: Inhibition of forskolin-increased intracellular cAMP in mouse FPRL2-expressing CHO cells; format: cell-based; details: 1 μM forskolin
T1 construct: expressed in transfected cells; host or cells: CHO cells (clone No. 15); expression vector pAKKO-111H
T1 sequence (O88536 1-351): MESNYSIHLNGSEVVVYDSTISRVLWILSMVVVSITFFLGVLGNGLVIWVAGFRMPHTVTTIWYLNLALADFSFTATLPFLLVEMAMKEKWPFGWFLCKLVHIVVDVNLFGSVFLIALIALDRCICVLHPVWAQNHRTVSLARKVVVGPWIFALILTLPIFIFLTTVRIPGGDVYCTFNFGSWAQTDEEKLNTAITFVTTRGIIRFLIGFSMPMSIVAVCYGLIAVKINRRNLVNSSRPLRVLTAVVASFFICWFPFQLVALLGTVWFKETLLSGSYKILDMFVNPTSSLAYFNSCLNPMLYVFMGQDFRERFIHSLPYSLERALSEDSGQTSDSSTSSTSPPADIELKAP
Experimental: (§1) CHO cells expressing each receptor were washed with an assay medium (HBSS (GibcoBRL) supplemented with 0.1% bovine serum albumin and 0.2 mM IBMX) and then cultured at 37° C. in 5% CO2 for 30 minutes. Humanin (Peptide Research Laboratory, Co.) or related substances diluted at each concentration with the assay buffer were added thereto, and then forskolin was added at a final concentration of 1 μM. The cells were cultured at 37° C. in 5% CO2 for 30 minutes. The culture supernatant was discarded, and the amount of cAMP in the cells was measured with a plate reader (ARVO sx multi-label counter, manufactured by Wallac) according to a protocol of a cAMP screen kit (Applied Biosystems). Assuming that the amount of cAMP produced in the cells to which 1 μM forskolin had been added was 100% and the amount of cAMP produced in the cells to which forskolin had not been added was 0%, the amount of cAMP upon addition of each agonist is shown in %. The concentration at which the amount of cAMP produced was inhibited by 50% (EC50) was calculated from logit-log plotting.

rFPRL1 = test: Inhibition of forskolin-increased intracellular cAMP in rat FPRL1-expressing CHO cells; format: cell-based; details: 1 μM forskolin
Experimental: as §1

FPRL1 [1] = target: T2, FPRL1 (Homo sapiens, UniProt P25090); test: Inhibition of forskolin-increased intracellular cAMP in human FPRL1-expressing CHO cells; format: cell-based; design: expressed in transfected cells; host or cells: CHO cells (clone No. 8; the title also lists a 'Human FPRL1' clone No. 14); details: 1 μM forskolin
T2 sequence (P25090 1-351): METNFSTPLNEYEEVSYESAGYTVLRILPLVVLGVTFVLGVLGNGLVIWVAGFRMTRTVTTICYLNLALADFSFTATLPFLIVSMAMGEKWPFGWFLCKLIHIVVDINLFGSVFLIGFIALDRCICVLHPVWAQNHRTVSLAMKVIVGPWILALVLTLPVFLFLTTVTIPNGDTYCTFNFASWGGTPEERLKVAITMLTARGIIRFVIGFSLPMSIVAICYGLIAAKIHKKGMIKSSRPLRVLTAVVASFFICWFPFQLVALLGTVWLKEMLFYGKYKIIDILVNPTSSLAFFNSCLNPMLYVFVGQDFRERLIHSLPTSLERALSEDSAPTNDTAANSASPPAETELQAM

FPRL2 [2] = target: T3, FPRL2 (Homo sapiens, UniProt P25089); details: reported in the literature; cited from earlier work
T3 sequence (P25089 1-353): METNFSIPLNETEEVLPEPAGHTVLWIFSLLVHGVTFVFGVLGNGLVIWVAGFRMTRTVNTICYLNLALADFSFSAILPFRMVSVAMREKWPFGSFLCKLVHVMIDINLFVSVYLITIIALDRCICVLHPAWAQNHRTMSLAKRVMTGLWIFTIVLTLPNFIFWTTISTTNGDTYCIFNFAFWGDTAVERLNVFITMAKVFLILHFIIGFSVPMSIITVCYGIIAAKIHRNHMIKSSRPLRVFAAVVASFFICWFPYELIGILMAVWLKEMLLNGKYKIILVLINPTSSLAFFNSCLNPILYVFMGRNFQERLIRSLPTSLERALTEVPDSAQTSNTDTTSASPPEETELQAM

hFPRL2 = target: T4, hFPRL2 (Homo sapiens, UniProt P25089); test: Inhibition of forskolin-increased intracellular cAMP in human FPRL2-expressing CHO cells; format: cell-based; details: 1 μM forskolin
T4 construct: expressed in transfected cells; host or cells: CHO cells (clone No. 17)
T4 sequence (P25089 1-353 G94A/S211T/D338H): T3 sequence (P25089 1-353) with G94A, S211T, D338H
Experimental: as §1

FPRL1 [3] = target: T2, FPRL1; details: reported in the literature; cited from earlier work
FPRL1-GFP = test: Inhibition of forskolin-increased intracellular cAMP in CHO cells expressing FPRL1-GFP; format: cell-based; details: 1 μM forskolin; CHO cells expressing FPRL1-GFP compared with mock CHO cells (vector only)
Experimental: CHO cells expressing FPRL1-GFP were washed with an assay medium (HBSS (GibcoBRL) supplemented with 0.1% bovine serum albumin and 0.2 mM IBMX) and then cultured at 37° C. in 5% CO2 for 30 minutes. Humanin (Peptide Research Laboratory, Co.) or related substances diluted at each concentration with the assay buffer were added thereto, and then forskolin was added at a final concentration of 1 μM. The cells were cultured at 37° C. in 5% CO2 for 30 minutes. The culture supernatant was discarded, and the amount of cAMP in the cells was measured with a plate reader (ARVO sx multi-label counter, manufactured by Wallac) according to a protocol of a cAMP screen kit (Applied Biosystems).

nerve cells = details: reported in the literature; cited from earlier work
FPRL2 [4] = target: T3, FPRL2; details: reported in the literature; cited from earlier work; remark: listed apart in the source

rFPRL1, sequence (as listed by the source): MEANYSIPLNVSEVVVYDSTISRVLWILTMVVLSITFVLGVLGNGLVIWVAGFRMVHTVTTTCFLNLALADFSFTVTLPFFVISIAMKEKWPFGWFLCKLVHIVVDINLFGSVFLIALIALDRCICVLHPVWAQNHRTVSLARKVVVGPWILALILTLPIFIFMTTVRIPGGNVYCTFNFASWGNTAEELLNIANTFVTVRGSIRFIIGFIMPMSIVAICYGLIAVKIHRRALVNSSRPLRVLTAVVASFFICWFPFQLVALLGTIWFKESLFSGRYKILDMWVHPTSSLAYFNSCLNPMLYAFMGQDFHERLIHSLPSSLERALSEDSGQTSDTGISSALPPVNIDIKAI

| Compound | reaction with mFPRL2 (inhibition of forskolin-increased intracellular cAMP) (mFPRL2) | reaction with rFPRL1 (inhibition of forskolin-increased intracellular cAMP) (rFPRL1) | reaction with hFPRL1 (inhibition of forskolin-increased intracellular cAMP) (FPRL1 [1]) | also measured |
| --- | --- | --- | --- | --- |
| mt-formyl-Humanin: human humanin (1-21), SEQ ID NO: 6, wherein Met at the N-terminus is formylated (For-MAPRGFSCLLLLTSEIDLPVK) | react | react | strongly |  |
| formyl-Humanin: human humanin (1-24), SEQ ID NO: 3, wherein Met of the N-terminus is formylated | react | react |  |  |
| formyl-Met-Leu-Phe [fMLF] |  |  |  | reaction of human FPRL2 with fMLF (FPRL2 [2]): does not react |
| [Gly^14]-humanin: [Gly^14]-human humanin (1-24) consisting of the amino acid sequence represented by SEQ ID NO: 4 (MAPRGFSCLLLLTGEIDLPVKRRA; Human) | react | react | react | reaction with hFPRL2 (inhibition of forskolin-increased intracellular cAMP) (hFPRL2): strongly |
| CCCCC[C@H](O)/C=C/C=C\C=C\C=C\[C@@H](O)[C@@H](O)CCCC(=O)O [lipoxin A4] |  |  |  | agonist of FPRL1 (FPRL1 [3]): Agonists |
| Aβ42: β-amyloid (1-42), intrinsic substance reported as agonist of FPRL1 |  |  |  | agonist of FPRL1 (FPRL1 [3]): agonist |
| humanin: human humanin (1-24) consisting of the amino acid sequence represented by SEQ ID NO: 3 | react | react | react | decrease of the amount of intracellular cAMP increased by addition of forskolin (FPRL1-GFP): dose-dependent and specific decrease; reaction with hFPRL2 (inhibition of forskolin-increased intracellular cAMP) (hFPRL2): strongly; death of nerve cells into which the familial Alzheimer's disease gene had been introduced (nerve cells): inhibited; nerve apotosis induced by adding β-amyloid (nerve cells): inhibited |
| mt-formyl-rattin: rat humanin (1-21), SEQ ID NO: 9, wherein Met at the N-terminus is formylated (For-MAKRGFNCLLLSISEIDLPVK) | react | react | strongly |  |
| Trp-Lys-Tyr-Met-Val-dMet-NH2 [W-Peptide] |  |  |  | agonist of FPRL2 (FPRL2 [4]): agonist |
